From paper PMC5074518

Experiments:
[1] = biological target: purine nucleoside phosphorylase from Kluyveromyces lactis, 6xHis-tagged, as used in analytical gel filtration (Kluyveromyces lactis); assay: SEC; analytical size exclusion chromatography on a Superdex 200 Increase 10/300 GL column, calibrated with molecular weight marker proteins; single predominant peak at 12.5 mL
[2] = biological target: purine nucleoside phosphorylase from Kluyveromyces lactis, C-terminal 6xHis-tag variant (Kluyveromyces lactis); assay: crystal structure; C-terminal 6xHis-tag variant, 8 mg/mL in 25 mM Tris-HCl, 100 mM NaCl, pH 8.0, mixed with 0.1 M sodium acetate trihydrate pH 4.6, 8% PEG4000; space group P6(1), 1.97 Å, three molecules in the asymmetric unit

| Substance | stoichiometry N [1] | stoichiometry N [2] |
| --- | --- | --- |
| purine nucleoside phosphorylase from Kluyveromyces lactis, 6xHis-tagged, as used in analytical gel filtration (enzyme) | 3 | – |
| purine nucleoside phosphorylase from Kluyveromyces lactis, C-terminal 6xHis-tag variant (enzyme) | – | 3 |
